Positions count from the first letter of the chain named.
Tests used:
[1] = target: T1, xCas12i v6.1 (N243R,E336R,V880R); assay: cell_activity; PAM TTTG; on-target; details: tags: NLS
T1 chain: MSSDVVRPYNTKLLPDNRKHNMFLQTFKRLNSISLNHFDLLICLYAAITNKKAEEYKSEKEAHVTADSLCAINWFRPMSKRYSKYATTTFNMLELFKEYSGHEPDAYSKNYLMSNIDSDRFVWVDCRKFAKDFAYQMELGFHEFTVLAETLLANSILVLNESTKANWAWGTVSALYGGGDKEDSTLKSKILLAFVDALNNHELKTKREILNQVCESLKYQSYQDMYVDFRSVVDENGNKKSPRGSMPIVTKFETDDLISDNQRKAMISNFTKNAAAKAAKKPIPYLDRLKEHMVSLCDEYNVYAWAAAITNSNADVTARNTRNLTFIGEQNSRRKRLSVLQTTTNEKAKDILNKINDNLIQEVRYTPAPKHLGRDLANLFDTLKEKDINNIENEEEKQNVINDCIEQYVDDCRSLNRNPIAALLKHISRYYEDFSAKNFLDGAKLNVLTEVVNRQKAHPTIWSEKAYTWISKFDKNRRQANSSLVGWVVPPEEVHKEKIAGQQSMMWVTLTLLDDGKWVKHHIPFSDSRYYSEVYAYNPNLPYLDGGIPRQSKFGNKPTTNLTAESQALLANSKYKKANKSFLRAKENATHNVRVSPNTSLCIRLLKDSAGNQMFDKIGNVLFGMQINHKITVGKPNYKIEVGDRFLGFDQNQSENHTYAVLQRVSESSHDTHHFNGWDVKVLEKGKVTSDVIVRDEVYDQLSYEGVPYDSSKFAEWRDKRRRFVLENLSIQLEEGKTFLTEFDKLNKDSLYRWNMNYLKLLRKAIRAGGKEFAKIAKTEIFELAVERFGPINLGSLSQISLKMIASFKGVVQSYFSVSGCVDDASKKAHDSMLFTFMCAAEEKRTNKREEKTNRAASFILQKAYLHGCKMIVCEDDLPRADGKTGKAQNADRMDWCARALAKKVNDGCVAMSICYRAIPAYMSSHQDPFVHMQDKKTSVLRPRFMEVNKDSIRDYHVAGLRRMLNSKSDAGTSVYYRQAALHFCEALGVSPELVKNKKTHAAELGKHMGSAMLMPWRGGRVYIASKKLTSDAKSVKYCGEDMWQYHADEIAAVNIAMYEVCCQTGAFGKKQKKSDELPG

[2] = target: T2, xCas12i v5.3 (N243R,D892R); assay: cell_activity; PAM TTTG; on-target; details: tags: NLS
T2 chain: T1 chain with R336E, R880V, D892R

B1: TTR.2 crRNA ; TTR ON.1 (ssRNA ; dsDNA)
RNA: AUGACUCAGAAAUGUGUCCCCAGUUGACACUAGAAGGGAUAUACAAAGUGGA
DNA 1: TTTGTAGAAGGGATATACAAAGTGGA
DNA 2: TCCACTTTGTATATCCCTTCTACAAA
- activity [1]: 75.7%
- activity [2]: 75.8%
